From patent US20150344570A1 (published 2015)
Positions count from the first letter of the chain named. Numbers in names are those of the source. Read-outs that look alike come from different tables or passages of the source.

T1: FcgRIIa H (FcγRIIa type H) extracellular domain with C-terminal His tag (human, UniProt P12318 34-217)
T1 construct: extracellular domain; also called FcγRIIa H; not shown: His tag attached to the C terminus
T1 sequence (looked up): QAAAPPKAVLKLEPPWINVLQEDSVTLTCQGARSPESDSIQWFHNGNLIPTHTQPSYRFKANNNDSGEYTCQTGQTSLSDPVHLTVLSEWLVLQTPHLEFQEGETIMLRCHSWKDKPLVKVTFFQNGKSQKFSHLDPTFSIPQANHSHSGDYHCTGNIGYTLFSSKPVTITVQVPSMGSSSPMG

T2: FcgRIIa R (FcγRIIa type R) extracellular domain with C-terminal His tag (human, UniProt P12318 34-217)
T2 construct: extracellular domain; also called FcγRIIa R; not shown: His tag attached to the C terminus
T2 sequence (looked up): T1 sequence (looked up) with H134R

T3: FcgRIIb (FcγRIIb) extracellular domain with C-terminal His tag (human, UniProt P31994 43-217)
T3 construct: extracellular domain; not shown: His tag attached to the C terminus
T3 sequence (looked up): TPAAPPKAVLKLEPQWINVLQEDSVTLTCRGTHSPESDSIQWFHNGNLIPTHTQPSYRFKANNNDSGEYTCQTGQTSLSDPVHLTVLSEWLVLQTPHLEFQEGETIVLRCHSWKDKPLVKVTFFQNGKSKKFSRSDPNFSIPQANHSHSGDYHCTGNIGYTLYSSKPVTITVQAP

B1: H240-Kn061/H240-Hl071/L73-k0 variant with A231E in H240-Kn061 (antibody, human IgG1, kappa)
heavy 1: QDQLVQSGAEVKKPGASVKVSCKASGFNIKDTYIQWVRQAPGQGLEWMGRIDPLRKQTKYREKFEGRVTITADTSTNTAYMELSSLRSEDTAVYYCVRSGREFDYWGQGTLVTVSSASTKGPSVFPLAPSSKSTSGGTAALGCLVKDYFPEPVTVSWNSGALTSGVHTFPAVLQSSGLYSLSSVVTVPSSSLGTQTYICNVNHKPSNTKVDKKVEPKSCDKTHTCPPCPEPEYYWGPSVFLFPPKPKDTLMISRTPEVTCVVVDVSDEDPEVKFNWYVDGVEVHNAKTKPREEQYNATYRVVSVLTVLHQDWLNGKEYKCKVSNKALPAPIEKTISKAKGQPREPQVCTLPPSRDELTKNQVSLWCLVKGFYPSDIAVEWESNGQPENNYKTTPPVLDSDGSFFLYSKLTVDKSRWQQGNVFSCSVMHEALHNHYTQKSLSLSP
heavy 2: QDQLVQSGAEVKKPGASVKVSCKASGFNIKDTYIQWVRQAPGQGLEWMGRIDPLRKQTKYREKFEGRVTITADTSTNTAYMELSSLRSEDTAVYYCVRSGREFDYWGQGTLVTVSSASTKGPSVFPLAPSSKSTSGGTAALGCLVKDYFPEPVTVSWNSGALTSGVHTFPAVLQSSGLYSLSSVVTVPSSSLGTQTYICNVNHKPSNTKVDKKVEPKSCDKTHTCPPCPAPELLGGPSVFLFPPKPKDTLMISRTPEVTCVVVDVSHEDPEVKFNWYVDGVEVHNAKTKPREEQYNSTYRVVSVLTVLHQDWLNGKEYKCKVSNDALPMPIEETISKAKGQPREPQVYTLPPSRCELTKNQVSLSCAVKGFYPSDIAVEWESNGQPENNYKTTPPVLDSDGSFFLVSKLTVDKSRWQQGNVFSCSVMHEALHNHYTQKSLSLSP
light: DIQMTQSPSSLSASVGDRVTITCRASQDIHKYIAWYQQKPGQAPRLLIQYTSTLQPGVPSRFSGSGSGTDYTFTISSLQPEDIATYYCLQYEQLRTFGGGTKVEIKRTVAAPSVFIFPPSDEQLKSGTASVVCLLNNFYPREAKVQWKVDNALQSGNSQESVTEQDSKDSTYSLSSTLTLSKADYEKHKVYACEVTHQGLSSPVTKSFNRGEC
notes: anti-epiregulin heterodimerized IgG1; also called H240-Kn061 A231E
B2: H240-Kn061/H240-Hl071/L73-k0 variant with Y235M in H240-Kn061 (antibody, human IgG1, kappa)
heavy 1: B1 heavy 1 with E230A, Y234M
heavy 2: B1 heavy 2
light: B1 light
notes: anti-epiregulin heterodimerized IgG1; also called H240-Kn061 Y235M
B3: H240-Kn061/H240-Hl071/L73-k0 variant with Y235F in H240-Kn061 (antibody, human IgG1, kappa)
heavy 1: B1 heavy 1 with E230A, Y234F
heavy 2: B1 heavy 2
light: B1 light
notes: anti-epiregulin heterodimerized IgG1; also called H240-Kn061 Y235F
B4: H240-Kn061/H240-Hl071/L73-k0 variant with Y235T in H240-Kn061 (antibody, human IgG1, kappa)
heavy 1: B1 heavy 1 with E230A, Y234T
heavy 2: B1 heavy 2
light: B1 light
notes: anti-epiregulin heterodimerized IgG1; also called H240-Kn061 Y235T
B5: H240-Kn061/H240-Hl071/L73-k0 variant with S239M in H240-Kn061 (antibody, human IgG1, kappa)
heavy 1: B1 heavy 1 with E230A, S238M
heavy 2: B1 heavy 2
light: B1 light
notes: anti-epiregulin heterodimerized IgG1; also called H240-Kn061 S239M
B6: H240-Kn061/H240-Hl071/L73-k0 variant with A231V in H240-Kn061 (antibody, human IgG1, kappa)
heavy 1: B1 heavy 1 with E230V
heavy 2: B1 heavy 2
light: B1 light
notes: anti-epiregulin heterodimerized IgG1; also called H240-Kn061 A231V
B7: H240-Kn061/H240-Hl071/L73-k0 variant with Y234S in H240-Kn061 (antibody, human IgG1, kappa)
heavy 1: B1 heavy 1 with E230A, Y233S
heavy 2: B1 heavy 2
light: B1 light
notes: anti-epiregulin heterodimerized IgG1; also called H240-Kn061 Y234S
B8: H240-Kn061/H240-Hl071/L73-k0 variant with Y235E in H240-Kn061 (antibody, human IgG1, kappa)
heavy 1: B1 heavy 1 with E230A, Y234E
heavy 2: B1 heavy 2
light: B1 light
notes: anti-epiregulin heterodimerized IgG1; also called H240-Kn061 Y235E
B9: H240-Kn061/H240-Hl071/L73-k0 variant with A231Q in H240-Kn061 (antibody, human IgG1, kappa)
heavy 1: B1 heavy 1 with E230Q
heavy 2: B1 heavy 2
light: B1 light
notes: anti-epiregulin heterodimerized IgG1; also called H240-Kn061 A231Q
B10: H240-Kn061/H240-Hl071/L73-k0 variant with S239V in H240-Kn061 (antibody, human IgG1, kappa)
heavy 1: B1 heavy 1 with E230A, S238V
heavy 2: B1 heavy 2
light: B1 light
notes: anti-epiregulin heterodimerized IgG1; also called H240-Kn061 S239V
B11: H240-Kn061/H240-Hl071/L73-k0 variant with Y235W in H240-Kn061 (antibody, human IgG1, kappa)
heavy 1: B1 heavy 1 with E230A, Y234W
heavy 2: B1 heavy 2
light: B1 light
notes: anti-epiregulin heterodimerized IgG1; also called H240-Kn061 Y235W
B12: H240-Kn061/H240-Hl071/L73-k0 variant with F241N in H240-Hl071 (antibody, human IgG1, kappa)
heavy 1: B1 heavy 1 with E230A
heavy 2: B1 heavy 2 with F240N
light: B1 light
notes: anti-epiregulin heterodimerized IgG1; also called H240-Hl071 F241N
B13: H240-Kn061/H240-Hl071/L73-k0 variant with S239L in H240-Kn061 (antibody, human IgG1, kappa)
heavy 1: B1 heavy 1 with E230A, S238L
heavy 2: B1 heavy 2
light: B1 light
notes: anti-epiregulin heterodimerized IgG1; also called H240-Kn061 S239L
B14: H240-Kn061/H240-Hl071/L73-k0 variant with Y235N in H240-Kn061 (antibody, human IgG1, kappa)
heavy 1: B1 heavy 1 with E230A, Y234N
heavy 2: B1 heavy 2
light: B1 light
notes: anti-epiregulin heterodimerized IgG1; also called H240-Kn061 Y235N
B15: H240-Kn061/H240-Hl071/L73-k0 variant with Y235L in H240-Kn061 (antibody, human IgG1, kappa)
heavy 1: B1 heavy 1 with E230A, Y234L
heavy 2: B1 heavy 2
light: B1 light
notes: anti-epiregulin heterodimerized IgG1; also called H240-Kn061 Y235L
B16: H240-Kn061/H240-Hl071/L73-k0 variant with S239I in H240-Kn061 (antibody, human IgG1, kappa)
heavy 1: B1 heavy 1 with E230A, S238I
heavy 2: B1 heavy 2
light: B1 light
notes: anti-epiregulin heterodimerized IgG1; also called H240-Kn061 S239I

Key:
Test in all cases: SPR (Biacore); KD of H240-Kn061/H240-Hl071/L73-k0 divided by KD of the variant
[1] = molecular target: T1, FcgRIIa H (FcγRIIa type H) …
Description: (§1) The antibodies were assessed for the binding to each FcgR. […] The resultant value was defined as relative KD, and used as an assessment indicator.
(§2) Analysis of interaction between objective antibody and the FcγR was carried out using Biacore T100 (GE Healthcare), Biacore T200, Biacore A100, and Biacore 4000. HBS-EP+ (GE Healthcare) was used as the running buffer, and the measurement temperature was set to 25° C. Chips produced by immobilizing the antigen peptide by the amine coupling method to a Series S sensor Chip CM5 (GE Healthcare), chips produced by allowing preliminarily biotinylated antigen peptides to interact with and immobilize onto a Series S Sensor Chip SA (certified) (GE Healthcare), chips produced by immobilizing Protein L (ACTIGEN, BioVision) to Series S Sencor Chip CM5 (GE Healthcare), or chips produced by immobilizing Protein A/G (Thermo Scientific) to Series S Sencor Chip CM5 (GE Healthcare) were used. Antibodies of interest were captured onto these chips, and allowed to interact to each FcγR diluted with running buffer.

[2] = molecular target: T2, FcgRIIa R (FcγRIIa type R) …
Description: as §1, §2

[3] = molecular target: T3, FcgRIIb (FcγRIIb) extracellular domain …
Description: as §1, §2

[4] = molecular target: T4, FcgRIIIa V (FcγRIIIa type V) extracellular domain with C-terminal His tag (human, UniProt P08637 17-208)
T4 construct: extracellular domain; also called FcγRIIIa V; not shown: His tag attached to the C terminus
Description: as §1, §2

[5] = molecular target: T5, FcgRIIIa F (FcγRIIIa type F) extracellular domain with C-terminal His tag (human, UniProt P08637 17-208)
T5 construct: extracellular domain; also called FcγRIIIa F; 3aF; not shown: His tag attached to the C terminus
Description: as §1, §2

[6] = molecular target: T3, FcgRIIb (FcγRIIb) extracellular domain …; remark: listed apart in the source
Description: as §1, §2

[7] = molecular target: T4, FcgRIIIa V (FcγRIIIa type V) …; remark: listed apart in the source
Description: as §1, §2

[8] = molecular target: T5, FcgRIIIa F (FcγRIIIa type F) …; remark: listed apart in the source
Description: as §1, §2

T4 sequence (P08637 17-208 F176V limits assumed): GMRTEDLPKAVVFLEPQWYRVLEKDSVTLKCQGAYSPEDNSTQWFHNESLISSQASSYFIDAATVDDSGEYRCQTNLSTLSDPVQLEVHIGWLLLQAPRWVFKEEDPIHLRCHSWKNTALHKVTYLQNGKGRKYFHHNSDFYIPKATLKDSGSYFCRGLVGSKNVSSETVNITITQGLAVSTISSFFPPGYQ
T5 sequence (P08637 17-208): as the sequence (P08637 17-208 F176V limits assumed) above, with V160F counted along it

Binder	relative KD [1] [ratio]	relative KD [2] [ratio]	relative KD [3] [ratio]	relative KD [4] [ratio]	relative KD [5] [ratio]	relative KD [6] [ratio]	relative KD [7] [ratio]	relative KD [8] [ratio]
B1	1.6	1.7	1.4	2	1.8			
B2						0.7	1.8	1.7
B3						1.2	1.5	1.3
B4						0.6	1.1	0.9
B5	2	3.2	2.2	2.8	2.2			
B6	1.6	1.6	1.6	1.5	1.3			
B7						1	0.9	0.9
B8						0.8	3.2	2.2
B9	1.5	1.5	1.4	1.7	1.5			
B10	2.4	4.2	3.4	2.9	2.4			
B11						1.3	1.3	1.1
B12	3.5	3.8	1.1	0.7	0.8			
B13	2.4	4.8	3.4	3.7	3.4			
B14						0.7	2	1.3
B15						0.9	1.5	1.8
B16	2.1	4.4	3.1	3.4	3			
